Among the data in the NTF2 design screens of Basanta et al. (2020) are protease stability score values, retold here.

The nature of this data set: protease stability score; higher = more stable; yeast display proteolysis, trypsin and chymotrypsin.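 Further: relative to predicted unfolded state with 0 unfolded-like and 1 meaning tenfold more protease.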
Regarding “SEEEHLSKLTKKHMLHLWETGNETILEELADPNARHRWLVNGKEVTAHGREEVTRLFRDILDELGVDHLKLHSETVIGEKIHFDMIMIIGEFESRVRLNLHIVNGRIKEIDLQEQ”, the protease stability score was determined as 0.445. “HEEEKQMREAVEEAYHVLRTGDEKTIRELADPDVRLDINGKEIIGRELFFRHLWYEFYFFKNMRITIKHYEIQGEKVHIHIEIDWNGKELRSHMEVDKVDGRWLLHSVIFR” yielded a protease stability score of 0.783. “DEDRRDAEEFIRLFHEAVQTGDEDTLRKFIDPRARIDVNGRILHGREEYLEWMREVLRFFKNVRFEVDLHDVKIVGDKIHVDTTLWTHFNGRDLELKTRVHLEKVNGVWRIKRIDFE” had a protease stability score of 0.77. For “DERHNKQWNKELIKIWTDGDHKKFSEMLDKDVQIQVGDKEYHGREEIVRQYKTLMDRADHFEVKRYEVKGNDITIIFTFQVNGRRDQVRVVFVIENGHVKKITMDKK” the value was 1.97.

“DKVEDDLREFARLFVEYMETGDEDKVSKLMDPSMRIEIHINGKDIKYHGREELNRWRSEEMKRVDHEKWHHKHIRVIGDKVDIDFRRVEHVGDKHLVFQVHIELFVINGKLHTVIIRIE”: the protease stability score was 1.53.

Turning to “SHEEEIAREISRDLFRAFLTGDEDWLLKNLDPDARLHVSVGDKSEHFHGREEVMKFVREWRVHRIEIKELRVFNGRIHSRVHVYGEFNGQRFRTDIHENYNIVDGRIKEIHVEIR”, the protease stability score was determined as 1.66. Turning to “SEFEEIAHIMIRLFHHAMRTGDEHKLMKNFDPNTRIDVNGVEEHGRENLERHLHHLSRHLRVNDFKVKDVKDVDGRVVIDGIWNGEINGQETDVEVEVIIIKINGQWYIQHLKIK”, the protease stability score was 1.03. “DEDERESHNFMHEMEKAAKTGDWRKFEEMFDPDVRTIIGDKEDHGWEVAVKLFLDLGIKVLKVKRVDVVDGRLELEMELHFNGVIRKVTLRTKKVNGRWQVKELRFE” registered a protease stability score of 1.57. “HEEEKEIEKWVRLLLEVIQTGDEHWFERMADPNARVEVGEFEKHGRELFFEMTVRIVKKLGVDHVQLRRFDLIDGVALDHMELRIGDKHVEFIHISSKVNGRWFDKEVRVREI”: the protease stability score was determined as 0.939. The sequence “HEENKELEDLLRVWMELVETGDEEELLKLADPDWRLDINGRRIHGRDKVLTWLREHREKLGVDHRHLFLKDVRTVNGRVDANGENEVQVNGKRIVIDIRFHLVVINGRIHMISLRLH” had a protease stability score of 1.15. “SEDHRMMKEALDKLIDSIETGDPELYLRLFDPDTQTRIGDKHIHGWEEIEKIFRKILERFDHFEHMHLEHFDIQGNYIHLDIRLWGKVNGKRITLNIRVVVVKYNGRWTIREESLT” yielded a protease stability score of 1.72. “SEDEEMLRLAWEIHREILDTGDWKMFEELADPHTRIEVGEYINVGRETASKFILDNVRKIKNMRLHVHEHRTIDGKLEIHLRVNVNGQHRTLFLFASKFDGVWIITSVVVEIR” gave a protease stability score of 1.18. The sequence “DEDEKEIAKTVKELVHSLRTGDWEKITRMADPHVKIHVNGRELHGWEEMRRFEEEEFKRLGFKHRDVELKDFRYQGNFAHVHGNLVVEFNGVEEEIDQHIIILKVNGRWLITEIRHH” gave a protease stability score of 1.31.

“DDDAIKRFHEQVDNEQHNNEEEQEKNVDPNATVNVGDKTYHGREKWREVVKRENEEMRVKYQHVTFRRHPGRVIVRFRIVNDHNGKPTETDVNANYQMHNGRIRQVNRRTDG” gave a protease stability score of 0.225. For “SDLDEVARHATQLIEEVQQTGDWHTLMRLADPNTRLLIGDKVIHGMTELIRILDELYERWGVSKVKVRLHDVRVQGDKVDVDTRSEFNGREVKVRFIIRKVDGRWHLKSVEEHLD”, the protease stability score worked out at 1.12. For “SEEEEEAHKFIEDWRTALETGDFDSIKELIDPNVRLHIGDKDLVGREEWVRELRRRKERYKGLRLKVHIKHVDIFDGRLIVDAEIRIDIGDKHLHYRVHIFVHKVNGRWQMKRYEEE” the value was 2.57; for “EEEEESVQRAMERILHALQTGDWHTLSRMADPHVKLLVNGVELHGMEKIEEFLKKLLEELGVDKIDVRLHDFHTFNGVVHVDVRSHFNGRTHREEWVLLKVNGRWSLKEVRTE”, 1.44; for “TEEEEEFKRTSHEIFYALHTGNWEILEKMFDPHVRTHINGKDVHGREEATRVMELWIEELGVKHIHIKSEHHDIQGEFVRIHFHIISRVGDKFIEIEIEMEIRKINGRWRFTSIRLDRR”, 1.42. In the case of “TELDKHVEDLLHRFIEALHTGNWEQLEHLVDPDARFDVDGRIHHGREWLLTHMTRIKNARIEFHHIEIYGDYISMRVIIHVNGQTRDFHLELITFNGRIKEVRIWHI”, the protease stability score amounted to 2.34. The same measure for “DEDDEFMKRLAEEVIKNLHTGDWESLVHLMDPNALFEFDGVRNHGREQTDRFWEEVHERYPNVREKWDIHTIDVFNGRAKVDSRITFHFDGRDYVHKSEFHLIVFNGKVKSVHIHIR”: 0.158.

In the case of “DEDEKHARDLMKLWQLAMFTGDEDTLKRLVDPDMRLKYGEFELHGREDLLRFFKHWRLESRLETTDVRFQGDKLVAYGVRRHVSHIDGVEVEETRRVITYILKVDGQWYVKSVEIR”, the protease stability score amounted to 1.67. The same measure for “DDKEEHWHELNRIYFEWFRTGDEELIAKNADPNVRYHIDGREFHGREDFDKLMDHLSRKFKNARIEFDDMRWQGDKLHLRGTLRVGDKNIDTRIHIVIVNGQLHLIIHIRD”: 1.31; for “TERDEHIEEMTDEWIELLFTGDEESLKRLADPDMRVNFNGVEIHGMHNFMRWVLHVLEHWRIEVKIHHKEVQGDKIRVELKQNIHFNGRDIHRDNREHIFVVNGVNKHVILIYR”: 1.43; for “REEEETLDRAIREMLRNMRTGDEHRMRELMDPNVRAHINGREIHGREEVVRHLVEWLKRVDHIEFKLEHQVVYGEKIDLDTRVTIRVNGVELRHKTHQRVHKIDGKWVLDELEIS”: 2.05. The sequence “SEEEEQAKEAVRHFIHKWQTGDEDRLKELLDPHTKIDIGDKHIHGREEATKLIRNELHRIKNIRVELRDIEVRVYDGVIELHIRGLEKYNGQEVHVTIILIFRKINGQWIIQSEHFHID” yielded a protease stability score of 1.31.

Consider “TEDLEKVHTFLNLLLHSRLTGDEDSLHRMADPNMRVDQGEYQHHGRELFIEWTKRELEHLRLRHYHLEDIDIYNGVVKVTGKMDVEVNGRRHHVDVTLIVLKINGRWHLKSVHIS”, for which the protease stability score is 1.24. The same measure for “DELERVSERAIKIFLHVFKTGDEHMHERMADPNVRVHVDGQDLHGREETVEHMLHFFERIKNVKIDVEDSKAYGDKVIVHSRLHWNGVTQHVELEMRKVNGRWEVTEIIIH”: 0.1; for “SEEEEEAQRFFEEWSKSWVTGDEDLTLHLLDPNVKVDIGDKVYHGRESYLELLHLILREARVHSFHMHRLEVIGEKANIDSRVDHEVGDKRDTVHMNMIVVKINGRWILKSIQIK”: 2.58; for “DETKHHHDRLFEEEAKAIATGDWEKLKELLDPHVRFEVGNKEIHGMETVLEEIERDLKRLGVTKQEVRIVIDKVDIQGEKIVSDFTLRLHFDGVTIEHKVHVIEVKIDGRWLIQSIRIE”: 1.53. The same measure for “SEEEEDVRKFVHMLMLSFITGDWKMLWEMLDPEVRLHVGDKTIIGRERFVSFMQRLLRELRIKDFHVDSIEIQGEKAIIHTTLHIVIGEKEEDRYVRYIVIKIDGRWLIHRVHIH”: 2.74; for “SKEEHDAKYIAMLVVENLLTGDWERLFRYLDPHARMEFKVGDKHIETHGWKEIKETLDELITEWRTDDMKVRDIKVYGDKVDVEGEMRGDINGRIRTIEVRIEVIVVNGRLKDISFEVK”: 1.95. Turning to “DEEEEEAHTITEILVHDWRTGNEEHLVKLIDPNARINYNGVNLHGMKAVSIILHHIRYKDVSLHEVRVFDGQVEIILKIHVNINGQDETHHTHIVLSKVNGRWLIDTIKWE”, the protease stability score turned out to be 1.28. With “SEDEKMFKEMKDLLLEILRTGDEDSWSHLADPDYRMDINGRIDHGMEEASRSLTEFLRKLGIDHLDIKDSKVTLVNGRAIIILHEETKVNGRKFNLRIINIVSKVNGKWSIESFSMSIE”, the protease stability score worked out at 1.29. Turning to “REEEEEIEEALRQWLTLHETGDFKYLEKLFDPNVKQDVGDKELHGRELFSKFEHELAERIKGVRFRYHYEEIHIFDGRVVLRLDGIWEIGDKSMRVTLIVIMNKFDGRWKLESLHIEYR”, the protease stability score turned out to be 1.24. Take “DEFHHSVELAIRIIFEILRTGDEHHMDTMADPDVRIIIGDKHNVGRELVKDVMRRLVTEWRIRHWEIKNSHLIGDKLLVDSHVEVEVGDFNLRTDVHLVFTKINGRWTLHSHHID”: the protease stability score came to 1.09.

Turning to “DEFRRDALETHEDEIRDYLTGDWKSSKHLADPHARFVVGDKHYHGWHEMVRLVKENQEKFGIDHSEFRIHDSHVQGNKVIMDVEIHLTFNGKKIHTRSTILLVKINGVWLNTEIHID”, the protease stability score was determined as 0.072.

For the sequence “SEKETLDQHIARLWVHYWLTGDEDQLHRLADPNVRSIVDGKHVHGMERMLTELKRMRERFDHMHIEIHDIKVFDGVIHIDTTLHVQINGVHRSWESRIIIYLINGRVHSVEIRIL”, the protease stability score is 1.16.

The sequence “DEDEEVSRRALEKWIKNFLTGNEDSVLELADPHMRIVQGDKEYHGRHEMRDMMTDWLREIRIKTVEERHFRVIDGRVDHHVTLHGIVNGKETVRRMIVISEKVDGKWILHSLEIR” showed a protease stability score of 0.907. “DEHTDMTRRLAELFRHLIETGNWKELTKLADPNMRLEVGDKEMHGREKLAELWRRIKNVRISIRRVEVQGEKVHLDLELDVDGQRQKFSEHIDIVDGVMRDVNVQWE” had a protease stability score of 2.12. “SEEYENAEKLTHHLTEILQTGDEQKLHELVDPHVKIHVDGVELHGMERYQELVDHWRIDSHTLHDFKIIGDKARVDSRVILTIGDKKERISLRFILVKIDGQWLNHEVEFN” gave a protease stability score of 1.79. The same measure for “DEDHKIVEHMVKLIIDSMHTGDEHSIRELFDPNTRMDVNGVDFHGWEHYHKRIEDLRKRADHVTIYIRDMKVINGQAHIHTEMRIDIGDKHLRHRVIIIVLKVDGRWVIEQVIFL”: 2.29; for “DEEKEEIELAIRLTEKMLKTGDEELWRENADPNARFVTENHDDHGREVIVKWVHEMRRKFKNMRLEIEDVRTFNGRLEIHLRLNVNGRDLKINIIVEKVNGRWFLREIEIQ”: 1.74. “DEEKRDAREFLHLLFHAMITGDEDLVRHLADPHVKLDVNGRELHGWELFLTWFKRLLEEIRLTDIDVHHIELQGNKIILDTRLHVRVGDKEVDIHTEFHVVKVNGKWRLKTMRTE”: the protease stability score amounted to 2.61. For “DEREEHAEEIFRELIHWMETGDEKKMRRYFDPHARLEVGDKEFIGREKISEWMVELRLKDHKERHFDVVNGVAEIHGVMDGIIDGRRHRTEVIIDINIINGKFHRIRIIVK” the value was 1.21.

On to “NEEEEDMEHATKEHMELWRTGDEKRITELADPNVRVHVGEKEYHGREKLSEHIMRLGFDHVELTHFDVQGEKVISHIRVRFNGRDIEFLLIVLKVDGRWYEEQVNIRVS”, for which the protease stability score was 0.66.

In turn, “SREHKEAEDALRQWLETLRTGDERTMHELFDPNVRLHINGKEIHGREKVLTQLEHELKRFKNVRYELESIDITEHHVRVFGTSHVNGVEEKLEIVILKWDGRWRVQELYVHRV” came in with a protease stability score of 1.67.

Sequence “SEEEEDTERAMELAHHLLFTGNWEIMLKLFDPHMRLEFNGVDNHGREQVIREIRERIKLLGITNIELEPEEVRVQGDKVILHSRVDYNGKHYETEFVAEKVDGRWFIRSMRYE” yielded a protease stability score of 1.3.
